Target: T1, RXFP1 receptor (endogenous, on OVCAR5 cells) (UniProt Q9HBX9 1-757, limits assumed)
T1 sequence (looked up): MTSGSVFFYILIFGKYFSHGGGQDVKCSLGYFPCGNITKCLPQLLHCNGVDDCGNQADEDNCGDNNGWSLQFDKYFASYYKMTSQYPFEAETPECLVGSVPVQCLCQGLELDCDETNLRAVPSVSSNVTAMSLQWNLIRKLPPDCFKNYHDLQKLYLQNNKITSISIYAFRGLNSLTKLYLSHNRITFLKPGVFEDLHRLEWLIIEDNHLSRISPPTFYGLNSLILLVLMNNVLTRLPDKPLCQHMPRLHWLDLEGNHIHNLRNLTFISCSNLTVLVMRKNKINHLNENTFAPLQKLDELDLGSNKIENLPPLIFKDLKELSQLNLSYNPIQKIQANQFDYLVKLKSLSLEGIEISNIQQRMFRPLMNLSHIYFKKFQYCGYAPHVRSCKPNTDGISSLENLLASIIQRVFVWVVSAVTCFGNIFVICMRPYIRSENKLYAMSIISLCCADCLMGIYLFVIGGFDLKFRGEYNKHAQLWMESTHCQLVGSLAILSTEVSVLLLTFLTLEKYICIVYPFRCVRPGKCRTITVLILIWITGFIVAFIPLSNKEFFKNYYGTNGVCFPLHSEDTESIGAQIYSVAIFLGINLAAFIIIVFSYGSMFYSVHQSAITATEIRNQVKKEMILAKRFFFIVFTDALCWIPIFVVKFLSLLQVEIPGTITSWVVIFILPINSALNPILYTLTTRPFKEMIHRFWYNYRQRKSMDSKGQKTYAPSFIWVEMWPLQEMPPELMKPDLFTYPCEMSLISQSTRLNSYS
Test: cell-based or functional assay

For Ac-VIKLSGRELVRAQIAISGMSTWSKKKK-NH2 [KKKK(AcB7-29 C11.23S)], the “EC50 (nM), cAMP assay in OVCAR 5 cells” value was 206 nM and the “Emax, cAMP assay in OVCAR 5 cells” value was 84%.
